Test results from patent publication US20040198705A1, “Modulation of steroid hormone uptake” (priority 2001, published 2004).
Read-outs that look alike come from different tables or passages of the source. Each block holds one molecule with its values, some of them ahead of it.

Experiments:
[1] = target: megalin expressed on Brown Norway yolk sac carcinoma cells (BN16 cells) (UniProt P98158); experiment: cell-based or functional assay
[2] = target: SHBG receptors in bovine epididymis membranes permeabilized in digitonin (bovine); experiment: radioligand filter binding to digitonin-permeabilized bovine epididymis membranes, competition with unlabelled rSHBG
[3] = target: SHBG receptors in bovine epididymis membranes permeabilized in digitonin (bovine); experiment: homologous competition, filter binding: 125I-rSHBG (400 pg) on 600 µg bovine epididymis membranes permeabilized in digitonin, with testosterone, 4 °C 18 h; unlabelled rSHBG varied, 125I-rSHBG as the displaced tracer
[4] = target: SHBG receptors in bovine endometrium membranes permeabilized in digitonin (bovine); experiment: homologous competition, filter binding: 125I-rSHBG (400 pg) on 600 µg bovine endometrium membranes permeabilized in digitonin, with testosterone, 4 °C 18 h; unlabelled rSHBG varied, 125I-rSHBG as the displaced tracer
purified native megalin = experiment: surface plasmon resonance, native megalin immobilised (51.4 fmol/mm^2), 1 µM testosterone/SHBG complexes in flow, blank chip subtracted
SHBG receptor = settings: read-out: Kd of receptor binding, cited from earlier work
[5] = test system: SHBG receptors in bovine epididymis membranes; experiment: 125I-rSHBG binding to permeabilized epididymis membranes
Experimental: (§1) FIG. 8. 125I-rSHBG (400 pg) was incubated with 600 μg of membrane preparations from bovine epididymis (A) or endometrium (B) in the presence of the indicated concentrations of unlabelled rSHBG. Values are given as a percentage of 125I-rSHBG bound in the absence of competitor (100%). The data represent the means of four individual experiments (±S.E.M.). Where no error bar is shown, the values are smaller than the actual symbol.
(§2) To test whether recombinant SHBG (rSHBG) interacts with SHBG receptors and in particular whether rSHBG can act as an inhibitor of SHBG binding to an SHBG receptor, the binding of rSHBG to bovine epididymis and endometrium membranes permeabilized in digitonin was assayed. Binding was performed in the presence of testosterone, to achieve steroid hormone-steroid hormone binding protein complex formation.
(§3) Briefly, purified recombinant SHBG was labelled with ^125I using the Iodo-Gen™ method [specific radioactivity (13-15)×10^3 c.p.m./ng]. 400 pg of ^125I—SHBG was mixed with 600 μg of purified membranes (either bovine epididymis or bovine endometrium membranes permeabilized in digitonin) in a total volume of 200 μl of reaction buffer [10 mM Hepes, pH 7.4, 2 mM CaCl2, 1 mM MgCl2, 1% (w/v) BSA, 1 µM ZnCl2, […] testosterone and […] digitonin]. […] The filters were washed extensively with reaction buffer and the amount of bound radioactivity was determined.

[6] = test system: SHBG receptors in bovine endometrium membranes; experiment: 125I-rSHBG binding to permeabilized endometrium membranes; settings: bovine endometrium membranes permeabilized in digitonin, competition with unlabelled rSHBG
Experimental: as §1, §2, §3

Chain of UniProt P98158 (P98158 26-4660 limits assumed): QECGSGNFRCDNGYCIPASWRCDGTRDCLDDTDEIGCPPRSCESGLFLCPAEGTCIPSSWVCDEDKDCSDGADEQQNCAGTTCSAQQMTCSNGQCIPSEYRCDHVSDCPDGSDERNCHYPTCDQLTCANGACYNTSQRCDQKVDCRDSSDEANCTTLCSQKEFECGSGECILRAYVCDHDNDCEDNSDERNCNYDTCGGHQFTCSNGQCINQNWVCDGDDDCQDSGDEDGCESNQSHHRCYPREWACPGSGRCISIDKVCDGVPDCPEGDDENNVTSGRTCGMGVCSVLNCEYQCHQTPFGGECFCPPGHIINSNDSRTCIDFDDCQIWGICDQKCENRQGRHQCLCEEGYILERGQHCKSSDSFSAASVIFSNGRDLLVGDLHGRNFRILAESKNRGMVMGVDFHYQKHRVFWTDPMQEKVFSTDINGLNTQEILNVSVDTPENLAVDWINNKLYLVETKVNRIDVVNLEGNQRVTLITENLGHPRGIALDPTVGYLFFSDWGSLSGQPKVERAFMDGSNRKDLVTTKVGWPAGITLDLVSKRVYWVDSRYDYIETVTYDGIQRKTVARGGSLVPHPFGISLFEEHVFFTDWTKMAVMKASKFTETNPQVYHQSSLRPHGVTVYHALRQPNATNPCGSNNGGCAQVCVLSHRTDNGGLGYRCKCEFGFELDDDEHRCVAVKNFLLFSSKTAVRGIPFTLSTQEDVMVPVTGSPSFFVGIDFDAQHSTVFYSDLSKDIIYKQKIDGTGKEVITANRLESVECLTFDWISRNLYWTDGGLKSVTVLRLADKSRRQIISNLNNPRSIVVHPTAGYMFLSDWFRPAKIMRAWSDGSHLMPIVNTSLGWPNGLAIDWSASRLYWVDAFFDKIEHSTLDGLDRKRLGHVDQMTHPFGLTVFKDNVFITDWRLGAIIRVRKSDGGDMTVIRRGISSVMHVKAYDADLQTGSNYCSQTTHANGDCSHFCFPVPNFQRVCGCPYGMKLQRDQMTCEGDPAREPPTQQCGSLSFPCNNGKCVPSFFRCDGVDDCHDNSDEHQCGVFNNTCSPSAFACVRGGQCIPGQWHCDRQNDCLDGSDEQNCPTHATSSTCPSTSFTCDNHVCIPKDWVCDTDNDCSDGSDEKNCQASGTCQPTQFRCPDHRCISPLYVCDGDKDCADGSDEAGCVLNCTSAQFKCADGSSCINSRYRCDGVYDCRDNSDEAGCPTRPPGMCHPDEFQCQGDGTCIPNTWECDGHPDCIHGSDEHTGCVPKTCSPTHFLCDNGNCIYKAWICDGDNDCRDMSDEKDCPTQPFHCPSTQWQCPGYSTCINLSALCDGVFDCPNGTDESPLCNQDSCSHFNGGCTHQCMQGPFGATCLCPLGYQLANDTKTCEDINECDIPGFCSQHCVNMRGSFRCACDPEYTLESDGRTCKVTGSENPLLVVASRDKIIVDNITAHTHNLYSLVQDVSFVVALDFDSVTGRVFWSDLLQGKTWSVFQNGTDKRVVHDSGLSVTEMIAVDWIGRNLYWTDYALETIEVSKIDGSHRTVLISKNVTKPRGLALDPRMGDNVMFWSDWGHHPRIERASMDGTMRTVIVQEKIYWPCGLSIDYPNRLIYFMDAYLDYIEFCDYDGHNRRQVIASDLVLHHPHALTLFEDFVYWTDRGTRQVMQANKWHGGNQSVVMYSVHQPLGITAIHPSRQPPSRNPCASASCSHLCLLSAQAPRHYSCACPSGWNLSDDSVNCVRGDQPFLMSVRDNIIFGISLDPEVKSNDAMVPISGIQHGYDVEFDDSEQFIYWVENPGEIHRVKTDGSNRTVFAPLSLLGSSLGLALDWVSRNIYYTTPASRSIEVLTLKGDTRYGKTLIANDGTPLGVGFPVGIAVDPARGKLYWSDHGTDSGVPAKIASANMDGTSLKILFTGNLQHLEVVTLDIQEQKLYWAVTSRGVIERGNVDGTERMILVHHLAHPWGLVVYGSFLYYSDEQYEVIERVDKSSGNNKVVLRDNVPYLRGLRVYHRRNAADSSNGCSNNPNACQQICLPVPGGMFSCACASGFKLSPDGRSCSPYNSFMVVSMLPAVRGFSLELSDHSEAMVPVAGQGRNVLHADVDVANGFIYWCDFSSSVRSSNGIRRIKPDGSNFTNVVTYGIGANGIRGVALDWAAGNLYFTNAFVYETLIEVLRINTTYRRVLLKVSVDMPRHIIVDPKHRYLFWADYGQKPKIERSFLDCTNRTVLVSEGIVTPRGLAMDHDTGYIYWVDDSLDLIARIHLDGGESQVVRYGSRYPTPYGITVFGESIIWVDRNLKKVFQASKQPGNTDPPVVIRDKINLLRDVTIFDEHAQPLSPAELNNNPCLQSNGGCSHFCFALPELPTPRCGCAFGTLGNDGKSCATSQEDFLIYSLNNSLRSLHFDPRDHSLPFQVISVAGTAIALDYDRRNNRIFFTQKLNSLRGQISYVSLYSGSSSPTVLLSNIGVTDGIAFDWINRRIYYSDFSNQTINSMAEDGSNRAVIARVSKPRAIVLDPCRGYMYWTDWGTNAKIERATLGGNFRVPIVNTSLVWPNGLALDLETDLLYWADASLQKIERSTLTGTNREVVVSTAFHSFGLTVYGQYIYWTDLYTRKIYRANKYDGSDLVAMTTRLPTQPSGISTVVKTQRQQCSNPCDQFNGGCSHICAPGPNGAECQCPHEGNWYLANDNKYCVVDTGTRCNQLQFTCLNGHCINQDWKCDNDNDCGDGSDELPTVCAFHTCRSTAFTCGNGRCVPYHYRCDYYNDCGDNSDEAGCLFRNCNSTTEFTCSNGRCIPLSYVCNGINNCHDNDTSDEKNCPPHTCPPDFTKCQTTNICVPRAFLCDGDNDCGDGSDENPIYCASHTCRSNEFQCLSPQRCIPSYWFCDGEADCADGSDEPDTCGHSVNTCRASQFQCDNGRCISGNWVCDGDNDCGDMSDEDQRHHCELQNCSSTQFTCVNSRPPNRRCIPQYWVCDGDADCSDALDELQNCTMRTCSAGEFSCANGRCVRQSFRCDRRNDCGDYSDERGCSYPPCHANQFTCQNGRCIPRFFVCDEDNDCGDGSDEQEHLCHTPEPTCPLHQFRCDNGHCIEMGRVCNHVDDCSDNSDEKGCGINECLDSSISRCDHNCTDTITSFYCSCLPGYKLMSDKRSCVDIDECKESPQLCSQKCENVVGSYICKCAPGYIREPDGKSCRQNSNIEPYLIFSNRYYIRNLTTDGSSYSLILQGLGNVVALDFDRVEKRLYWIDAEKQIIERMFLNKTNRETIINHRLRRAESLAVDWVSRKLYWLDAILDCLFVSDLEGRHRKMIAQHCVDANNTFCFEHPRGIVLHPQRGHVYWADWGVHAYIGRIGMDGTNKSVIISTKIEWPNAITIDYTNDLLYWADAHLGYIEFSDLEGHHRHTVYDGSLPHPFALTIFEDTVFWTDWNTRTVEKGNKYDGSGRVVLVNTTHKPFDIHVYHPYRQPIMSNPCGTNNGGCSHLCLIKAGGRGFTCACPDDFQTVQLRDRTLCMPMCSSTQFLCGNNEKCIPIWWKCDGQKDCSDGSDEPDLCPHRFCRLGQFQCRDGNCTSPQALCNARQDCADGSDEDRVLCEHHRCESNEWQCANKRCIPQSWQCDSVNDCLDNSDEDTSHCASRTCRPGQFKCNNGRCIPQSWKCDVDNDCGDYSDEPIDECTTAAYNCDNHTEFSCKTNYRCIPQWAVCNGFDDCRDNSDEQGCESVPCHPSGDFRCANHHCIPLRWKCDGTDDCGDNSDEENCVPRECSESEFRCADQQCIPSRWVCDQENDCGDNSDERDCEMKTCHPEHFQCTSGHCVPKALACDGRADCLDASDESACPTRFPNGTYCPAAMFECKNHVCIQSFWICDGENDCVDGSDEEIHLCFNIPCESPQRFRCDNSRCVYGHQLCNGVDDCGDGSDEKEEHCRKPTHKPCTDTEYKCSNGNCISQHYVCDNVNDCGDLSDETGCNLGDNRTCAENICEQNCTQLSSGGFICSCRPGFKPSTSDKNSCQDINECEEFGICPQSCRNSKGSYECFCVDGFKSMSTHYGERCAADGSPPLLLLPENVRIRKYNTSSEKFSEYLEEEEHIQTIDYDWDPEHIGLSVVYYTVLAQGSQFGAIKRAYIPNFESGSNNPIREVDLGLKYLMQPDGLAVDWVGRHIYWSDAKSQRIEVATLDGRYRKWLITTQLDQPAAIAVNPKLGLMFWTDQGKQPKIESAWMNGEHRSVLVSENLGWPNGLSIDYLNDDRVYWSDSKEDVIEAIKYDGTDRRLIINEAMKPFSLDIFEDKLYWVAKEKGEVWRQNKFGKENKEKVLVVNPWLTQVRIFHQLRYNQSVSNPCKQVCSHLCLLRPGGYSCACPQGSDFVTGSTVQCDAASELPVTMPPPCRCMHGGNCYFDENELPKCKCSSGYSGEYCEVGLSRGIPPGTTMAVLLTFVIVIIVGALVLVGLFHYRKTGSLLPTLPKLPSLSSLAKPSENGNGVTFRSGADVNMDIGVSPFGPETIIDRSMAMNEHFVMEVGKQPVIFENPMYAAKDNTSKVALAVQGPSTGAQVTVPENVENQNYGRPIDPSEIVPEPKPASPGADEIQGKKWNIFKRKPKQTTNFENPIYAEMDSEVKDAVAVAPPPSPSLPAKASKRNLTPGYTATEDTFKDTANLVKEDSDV

cell-associated [3H]-DHT after 4 hours at 37° C. in the presence of GST (control) [1]: 300000 cpm
Molecule: complexes of [3H]-dihydrotestosterone (DHT) and sex hormone binding globulin (SHBG) (ligand)

cell-associated [3H]-DHT after 4 hours at 37° C. in the presence of GST-RAP [1]: 70000 cpm | reduction in [3H]-DHT uptake in the presence of GST-RAP [1]: 75%
Molecule: fusion protein of GST and the receptor-associated protein (GST-RAP)

Kd [2]: 500 nM | IC50 (read off the curve) [3]: 1000 nM | IC50 (read off the curve) [4]: 3000 nM
Molecule: recombinant SHBG (rSHBG), 125I-labelled, in the presence of testosterone (from UniProt P04278 30-402) (ligand)

Kd (purified native megalin): 140 nM
Molecule: testosterone/SHBG complex (sex hormone binding globulin with bound testosterone) (from UniProt P04278 30-402) (ligand)

B1: SHBG: native sex hormone-binding globulin, plasma carrier of androgens and estrogens (protein, listed as Homo sapiens)
chain: MESRGPLATSRLLLLLLLLLLRHTRQGWALRPVLPTQSAHDPPAVHLSNGPGQEPIAVMTFDLTKITKTSSSFEVRTWDPEGVIFYGDTNPKDDWFMLGLRDGRPEIQLHNHWAQLTVGAGPRLDDGRWHQVEVKMEGDSVLLEVDGEEVLRLRQVSGPLTSKRHPIMRIALGGLLFPASNLRLPLVPALDGCLRRDSWLDKQAEISASAPTSLRSCDVESNPGIFLPPGTQAEFNLRDIPQPHAEPWAFSLDLGLKQAAGSGHLLALGTPENPSWLSLHLQDQKVVLSSGSGPGLDLPLVLGLPLQLKLSMSRVVLSQGSKMKALALPPLGLAPLLNLWAKPQGRLFLGALPGEDSSTSFCLNGLWAQGQRLDVDQALNRSHEIWTHSCPQSPGNGTDASH
Kd (SHBG receptor; membrane suspensions): 50 nM | Kd (SHBG receptor; solubilized membranes): 500 nM

binding of 125I-labelled rSHBG (in words) ([5]; bovine epididymis membranes permeabilized in digitonin, competition with unlabelled rSHBG): saturable binding | Kd ([5]; permeabilized bovine epididymis membranes, in the presence of testosterone, read-out: affinity of binding (Kd)): 500 nM | binding of 125I-labelled rSHBG (in words) [6]: saturable binding
B2: rSHBG: recombinant SHBG, 125I-labelled, tested for binding to SHBG receptors (protein, UniProt P04278 30-402, looked up)
Sex hormone-binding globulin: LRPVLPTQSAHDPPAVHLSNGPGQEPIAVMTFDLTKITKTSSSFEVRTWDPEGVIFYGDTNPKDDWFMLGLRDGRPEIQLHNHWAQLTVGAGPRLDDGRWHQVEVKMEGDSVLLEVDGEEVLRLRQVSGPLTSKRHPIMRIALGGLLFPASNLRLPLVPALDGCLRRDSWLDKQAEISASAPTSLRSCDVESNPGIFLPPGTQAEFNLRDIPQPHAEPWAFSLDLGLKQAAGSGHLLALGTPENPSWLSLHLQDQKVVLSSGSGPGLDLPLVLGLPLQLKLSMSRVVLSQGSKMKALALPPLGLAPLLNLWAKPQGRLFLGALPGEDSSTSFCLNGLWAQGQRLDVDQALNRSHEIWTHSCPQSPGNGTDASH
modifications: 125I-labelled
